Patent US20030186281A1, “Modified tetracycline repressor protein compositions and methods of use” (priority 2001, published 2003)

Tested on: tet operator sequence
Experiment: β-galactosidase activity of a tetracycline-regulated promoter in transformed E. coli with revTetR, in the presence and absence of anhydrotetracycline (atc)
Type: cell-based, Escherichia coli
Conditions: for β-Galactosidase Activity, Cultured Without ATC: RevTetR isolate cultured in the absence of anhydrotetracycline (ATC); for β-Galactosidase Activity, Cultured With ATC: RevTetR isolate cultured in the presence of anhydrotetracycline (ATC)
Summary of the method: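 TetR(BD) chimera mutants (TetR(B) residues 1–50, TetR(D) 51–208) expressed in E. coli regulating a tet operator-controlled lacZ. β-Galactosidase measured in Miller units at 28 °C and 37 °C with and without anhydrotetracycline; reported as percent of maximal expression without Tet repressor.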

B1: TetRrev96/99-2: revTetR(BD) G99K V99A (protein)
chain: MSRLDKSKVINSALELLNEVGIEGLTTRKLAQKLGVEQPTLYWHVKNKRALLDALAVEILARHHDYSLPAAGESWQSFLRNNAMSFRRALLRYRDKAKAHLGTRPDEKQYDTVETQLRFMTENGFSLRDGLYAISAVSHFTLGAVLEQQEHTAALTDRPAAPDENLPPLLREALQIMDSDDGEQAFLHGLESLIRGFEVQLTALLQIV
modifications: Modified tetracycline repressor
notes: revTetR(BD) G99K V99A
- β-Galactosidase Activity, Cultured Without ATC: 94.5832
- β-Galactosidase Activity, Cultured With ATC: 31.604

B2: TetRrev96/99-11: revTetR(BD) G96R V99Y (protein)
chain: MSRLDKSKVINSALELLNEVGIEGLTTRKLAQKLGVEQPTLYWHVKNKRALLDALAVEILARHHDYSLPAAGESWQSFLRNNAMSFRRALLRYRDRAKYHLGTRPDEKQYDTVETQLRFMTENGFSLRDGLYAISAVSHFTLGAVLEQQEHTAALTDRPAAPDENLPPLLREALQIMDSDDGEQAFLHGLESLIRGFEVQLTALLQIV
modifications: Modified tetracycline repressor
notes: revTetR(BD) G96R V99Y
- β-Galactosidase Activity, Cultured Without ATC: 97.6643
- β-Galactosidase Activity, Cultured With ATC: 18.656

B3: TetRrev96/99-8: revTetR(BD) G96N V99H (protein)
chain: MSRLDKSKVINSALELLNEVGIEGLTTRKLAQKLGVEQPTLYWHVKNKRALLDALAVEILARHHDYSLPAAGESWQSFLRNNAMSFRRALLRYRDNAKHHLGTRPDEKQYDTVETQLRFMTENGFSLRDGLYAISAVSHFTLGAVLEQQEHTAALTDRPAAPDENLPPLLREALQIMDSDDGEQAFLHGLESLIRGFEVQLTALLQIV
modifications: Modified tetracycline repressor
notes: revTetR(BD) G96N V99H
- β-Galactosidase Activity, Cultured Without ATC: 103.657
- β-Galactosidase Activity, Cultured With ATC: 24.309

B4: TetRrev96/99-5: revTetR(BD) G96I V99K (protein)
chain: MSRLDKSKVINSALELLNEVGIEGLTTRKLAQKLGVEQPTLYWHVKNKRALLDALAVEILARHHDYSLPAAGESWQSFLRNNAMSFRRALLRYRDIAKKHLGTRPDEKQYDTVETQLRFMTENGFSLRDGLYAISAVSHFTLGAVLEQQEHTAALTDRPAAPDENLPPLLREALQIMDSDDGEQAFLHGLESLIRGFEVQLTALLQIV
modifications: Modified tetracycline repressor
notes: revTetR(BD) G96I V99K
- β-Galactosidase Activity, Cultured Without ATC: 57.8391
- β-Galactosidase Activity, Cultured With ATC: 17.087

B5: TetRrev96/99-6: revTetR(BD) G96N V99Q (protein)
chain: MSRLDKSKVINSALELLNEVGIEGLTTRKLAQKLGVEQPTLYWHVKNKRALLDALAVEILARHHDYSLPAAGESWQSFLRNNAMSFRRALLRYRDNAKQHLGTRPDEKQYDTVETQLRFMTENGFSLRDGLYAISAVSHFTLGAVLEQQEHTAALTDRPAAPDENLPPLLREALQIMDSDDGEQAFLHGLESLIRGFEVQLTALLQIV
modifications: Modified tetracycline repressor
notes: revTetR(BD) G96N V99Q
- β-Galactosidase Activity, Cultured Without ATC: 103.602
- β-Galactosidase Activity, Cultured With ATC: 28.364

B6: TetRrev96/99-10: revTetR(BD) G96N V99P (protein)
chain: MSRLDKSKVINSALELLNEVGIEGLTTRKLAQKLGVEQPTLYWHVKNKRALLDALAVEILARHHDYSLPAAGESWQSFLRNNAMSFRRALLRYRDNAKPHLGTRPDEKQYDTVETQLRFMTENGFSLRDGLYAISAVSHFTLGAVLEQQEHTAALTDRPAAPDENLPPLLREALQIMDSDDGEQAFLHGLESLIRGFEVQLTALLQIV
modifications: Modified tetracycline repressor
notes: revTetR(BD) G96N V99P
- β-Galactosidase Activity, Cultured Without ATC: 106.137
- β-Galactosidase Activity, Cultured With ATC: 20.797

B7: TetRrev96/99-7: revTetR(BD) G96L V99K (protein)
chain: MSRLDKSKVINSALELLNEVGIEGLTTRKLAQKLGVEQPTLYWHVKNKRALLDALAVEILARHHDYSLPAAGESWQSFLRNNAMSFRRALLRYRDLAKKHLGTRPDEKQYDTVETQLRFMTENGFSLRDGLYAISAVSHFTLGAVLEQQEHTAALTDRPAAPDENLPPLLREALQIMDSDDGEQAFLHGLESLIRGFEVQLTALLQIV
modifications: Modified tetracycline repressor
notes: revTetR(BD) G96L V99K
- β-Galactosidase Activity, Cultured Without ATC: 55.0127
- β-Galactosidase Activity, Cultured With ATC: 13.224

B8: TetRrevAtc4-16: revTetR(BD) D53N A54G V57F I59S L60F (protein)
chain: MSRLDKSKVINSALELLNEVGIEGLTTRKLAQKLGVEQPTLYWHVKNKRALLNGLAFESFARHHDYSLPAAGESWQSFLRNNAMSFRRALLRYRDGAKVHLGTRPDEKQYDTVETQLRFMTENGFSLRDGLYAISAVSHFTLGAVLEQQEHTAALTDRPAAPDENLPPLLREALQIMDSDDGEQAFLHGLESLIRGFEVQLTALLQIV
modifications: Modified tetracycline repressor
notes: revTetR(BD) D53N A54G V57F I59S L60F
- β-Galactosidase Activity, Cultured Without ATC: 104.174
- β-Galactosidase Activity, Cultured With ATC: 16.914

B9: TetRrev96/99-15: revTetR(BD) G96P V99P (protein)
chain: MSRLDKSKVINSALELLNEVGIEGLTTRKLAQKLGVEQPTLYWHVKNKRALLDALAVEILARHHDYSLPAAGESWQSFLRNNAMSFRRALLRYRDPAKPHLGTRPDEKQYDTVETQLRFMTENGFSLRDGLYAISAVSHFTLGAVLEQQEHTAALTDRPAAPDENLPPLLREALQIMDSDDGEQAFLHGLESLIRGFEVQLTALLQIV
modifications: Modified tetracycline repressor
notes: revTetR(BD) G96P V99P
- β-Galactosidase Activity, Cultured Without ATC: 110.413
- β-Galactosidase Activity, Cultured With ATC: 14.218

B10: TetRrev96/99-4: revTetR(BD) G96P V99S (protein)
chain: MSRLDKSKVINSALELLNEVGIEGLTTRKLAQKLGVEQPTLYWHVKNKRALLDALAVEILARHHDYSLPAAGESWQSFLRNNAMSFRRALLRYRDPAKSHLGTRPDEKQYDTVETQLRFMTENGFSLRDGLYAISAVSHFTLGAVLEQQEHTAALTDRPAAPDENLPPLLREALQIMDSDDGEQAFLHGLESLIRGFEVQLTALLQIV
modifications: Modified tetracycline repressor
notes: revTetR(BD) G96P V99S
- β-Galactosidase Activity, Cultured Without ATC: 109.291
- β-Galactosidase Activity, Cultured With ATC: 32.997

B11: TetRrev96/99-14: revTetR(BD) G96N V99N (protein)
chain: MSRLDKSKVINSALELLNEVGIEGLTTRKLAQKLGVEQPTLYWHVKNKRALLDALAVEILARHHDYSLPAAGESWQSFLRNNAMSFRRALLRYRDNAKNHLGTRPDEKQYDTVETQLRFMTENGFSLRDGLYAISAVSHFTLGAVLEQQEHTAALTDRPAAPDENLPPLLREALQIMDSDDGEQAFLHGLESLIRGFEVQLTALLQIV
modifications: Modified tetracycline repressor
notes: revTetR(BD) G96N V99N
- β-Galactosidase Activity, Cultured Without ATC: 110.999
- β-Galactosidase Activity, Cultured With ATC: 14.693

B12: TetRrev96/99-3: revTetR(BD) G96E V99T (protein)
chain: MSRLDKSKVINSALELLNEVGIEGLTTRKLAQKLGVEQPTLYWHVKNKRALLDALAVEILARHHDYSLPAAGESWQSFLRNNAMSFRRALLRYRDEAKTHLGTRPDEKQYDTVETQLRFMTENGFSLRDGLYAISAVSHFTLGAVLEQQEHTAALTDRPAAPDENLPPLLREALQIMDSDDGEQAFLHGLESLIRGFEVQLTALLQIV
modifications: Modified tetracycline repressor
notes: revTetR(BD) G96E V99T
- β-Galactosidase Activity, Cultured Without ATC: 103.749
- β-Galactosidase Activity, Cultured With ATC: 31.808

B13: TetRrevAtc4-2: revTetR(BD) R49G L55L V57V E58N R62L H63Q (protein)
chain: MSRLDKSKVINSALELLNEVGIEGLTTRKLAQKLGVEQPTLYWHVKNKGALLDALAVNILALQHDYSLPAAGESWQSFLRNNAMSFRRALLRYRDGAKVHLGTRPDEKQYDTVETQLRFMTENGFSLRDGLYAISAVSHFTLGAVLEQQEHTAALTDRPAAPDENLPPLLREALQIMDSDDGEQAFLHGLESLIRGFEVQLTALLQIV
modifications: Modified tetracycline repressor
notes: revTetR(BD) R49G L55L V57V E58N R62L H63Q
- β-Galactosidase Activity, Cultured Without ATC: 3.143
- β-Galactosidase Activity, Cultured With ATC: 0.9516

B14: TetRrev96/99-12: revTetR(BD) G96H V99Q (protein)
chain: MSRLDKSKVINSALELLNEVGIEGLTTRKLAQKLGVEQPTLYWHVKNKRALLDALAVEILARHHDYSLPAAGESWQSFLRNNAMSFRRALLRYRDHAKQHLGTRPDEKQYDTVETQLRFMTENGFSLRDGLYAISAVSHFTLGAVLEQQEHTAALTDRPAAPDENLPPLLREALQIMDSDDGEQAFLHGLESLIRGFEVQLTALLQIV
modifications: Modified tetracycline repressor
notes: revTetR(BD) G96H V99Q
- β-Galactosidase Activity, Cultured Without ATC: 102.406
- β-Galactosidase Activity, Cultured With ATC: 18.841

B15: TetRrev96/99-13: revTetR(BD) G96T V99D (protein)
chain: MSRLDKSKVINSALELLNEVGIEGLTTRKLAQKLGVEQPTLYWHVKNKRALLDALAVEILARHHDYSLPAAGESWQSFLRNNAMSFRRALLRYRDTAKDHLGTRPDEKQYDTVETQLRFMTENGFSLRDGLYAISAVSHFTLGAVLEQQEHTAALTDRPAAPDENLPPLLREALQIMDSDDGEQAFLHGLESLIRGFEVQLTALLQIV
modifications: Modified tetracycline repressor
notes: revTetR(BD) G96T V99D
- β-Galactosidase Activity, Cultured Without ATC: 103.963
- β-Galactosidase Activity, Cultured With ATC: 16.95

B16: TetRrev96/99-9: revTetR(BD) G96H V99N (protein)
chain: MSRLDKSKVINSALELLNEVGIEGLTTRKLAQKLGVEQPTLYWHVKNKRALLDALAVEILARHHDYSLPAAGESWQSFLRNNAMSFRRALLRYRDHAKNHLGTRPDEKQYDTVETQLRFMTENGFSLRDGLYAISAVSHFTLGAVLEQQEHTAALTDRPAAPDENLPPLLREALQIMDSDDGEQAFLHGLESLIRGFEVQLTALLQIV
modifications: Modified tetracycline repressor
notes: revTetR(BD) G96H V99N
- β-Galactosidase Activity, Cultured Without ATC: 71.6829
- β-Galactosidase Activity, Cultured With ATC: 14.528
